Laboratory results: patent US20140087995A1 (published 2014)
Numbered stars: 1 amine (or outer) side, 2 acyl side, 3 side chain; on linkers, the order of the positions; unused ones are H or OH. Bridge positions count the residues as written; N and C are the ends. Side chains are listed from the residue outwards. Ends that are not written are not given here. * marks the point of attachment. C20 diacid = O=C(O)CCCCCCCCCCCCCCCCCCC(=O)*; C18 diacid = O=C(O)CCCCCCCCCCCCCCCCC(=O)*; C16 diacid = O=C(O)CCCCCCCCCCCCCCC(=O)*; γGlu = O=C(O)[C@H](CCC(=O)[*:2])N[*:1]; C14 diacid = O=C(O)CCCCCCCCCCCCC(=O)*; AEEA = NCCOCCOCC(=O)O

T1: human calcitonin receptor (human, UniProt P30988 25-474)
T1 sequence (looked up): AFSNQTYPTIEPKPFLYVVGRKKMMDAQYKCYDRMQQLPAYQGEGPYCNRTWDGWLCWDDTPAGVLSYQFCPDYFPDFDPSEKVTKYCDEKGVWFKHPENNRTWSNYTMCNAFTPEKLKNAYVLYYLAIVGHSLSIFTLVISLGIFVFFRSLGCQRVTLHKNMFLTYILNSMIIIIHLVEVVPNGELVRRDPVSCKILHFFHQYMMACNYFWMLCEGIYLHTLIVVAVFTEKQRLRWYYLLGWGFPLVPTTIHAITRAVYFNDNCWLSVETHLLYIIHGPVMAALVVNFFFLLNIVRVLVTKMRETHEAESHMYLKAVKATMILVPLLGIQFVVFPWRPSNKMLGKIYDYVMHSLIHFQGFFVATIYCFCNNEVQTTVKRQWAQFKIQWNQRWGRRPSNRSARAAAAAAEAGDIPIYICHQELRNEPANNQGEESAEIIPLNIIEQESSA

T2: human calcitonin receptor (human, UniProt P30988 25-474)
T2 sequence (looked up): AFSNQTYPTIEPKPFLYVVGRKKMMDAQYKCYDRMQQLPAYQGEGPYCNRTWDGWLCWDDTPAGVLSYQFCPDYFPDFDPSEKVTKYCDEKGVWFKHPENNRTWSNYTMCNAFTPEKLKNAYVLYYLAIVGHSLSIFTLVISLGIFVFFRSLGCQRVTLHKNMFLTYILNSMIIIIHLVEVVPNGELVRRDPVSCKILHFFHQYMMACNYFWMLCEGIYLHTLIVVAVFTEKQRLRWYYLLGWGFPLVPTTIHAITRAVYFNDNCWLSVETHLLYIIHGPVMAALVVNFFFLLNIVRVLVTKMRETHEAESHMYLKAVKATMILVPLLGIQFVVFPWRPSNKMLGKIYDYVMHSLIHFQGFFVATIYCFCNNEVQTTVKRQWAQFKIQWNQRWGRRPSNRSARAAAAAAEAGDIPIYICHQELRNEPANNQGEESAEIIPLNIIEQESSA

B1: N^ε1-[2-[2-[2-(19-carboxynonadecanoylamino)ethoxy]ethoxy]acetyl]-[Arg17,Pro21,Pro27,His34]-h-amylin (peptide)
peptide: K([AEEA-C20 diacid])CNTATCATQRLANFLRHSSPNFGAIPSSTNVGHNTY-NH2
modifications: disulfide 2-7; N-terminus assumed
SMILES: CC[C@H](C)[C@H](NC(=O)[C@H](C)NC(=O)CNC(=O)[C@H](Cc1ccccc1)NC(=O)[C@H](CC(N)=O)NC(=O)[C@@H]1CCCN1C(=O)[C@H](CO)NC(=O)[C@H](CO)NC(=O)[C@H](Cc1c[nH]cn1)NC(=O)[C@H](CCCNC(=N)N)NC(=O)[C@H](CC(C)C)NC(=O)[C@H](Cc1ccccc1)NC(=O)[C@H](CC(N)=O)NC(=O)[C@H](C)NC(=O)[C@H](CC(C)C)NC(=O)[C@H](CCCNC(=N)N)NC(=O)[C@H](CCC(N)=O)NC(=O)[C@@H](NC(=O)[C@H](C)NC(=O)[C@@H]1CSSC[C@H](NC(=O)[C@@H](N)CCCCNC(=O)COCCOCCNC(=O)CCCCCCCCCCCCCCCCCCC(=O)O)C(=O)N[C@@H](CC(N)=O)C(=O)N[C@@H]([C@@H](C)O)C(=O)N[C@@H](C)C(=O)N[C@@H]([C@@H](C)O)C(=O)N1)[C@@H](C)O)C(=O)N1CCC[C@H]1C(=O)N[C@@H](CO)C(=O)N[C@@H](CO)C(=O)N[C@H](C(=O)N[C@@H](CC(N)=O)C(=O)N[C@H](C(=O)NCC(=O)N[C@@H](Cc1c[nH]cn1)C(=O)N[C@@H](CC(N)=O)C(=O)N[C@H](C(=O)N[C@@H](Cc1ccc(O)cc1)C(N)=O)[C@@H](C)O)C(C)C)[C@@H](C)O
notes: also called compound 91
B2: N^ε1-[2-[2-[2-[[2-[2-[2-[[(4S)-4-carboxy-4-(19-carboxynonadecanoylamino)butanoyl]amino]ethoxy]ethoxy]acetyl]amino]ethoxy]ethoxy]acetyl]-[Arg17,Pro21,Pro27,His34 … (peptide)
peptide: K([AEEA-AEEA-γGlu-C20 diacid])CNTATCATQRLANFLRHSSPNFGAIPSSTNVGHNTY-NH2
modifications: disulfide 2-7; N-terminus assumed
SMILES: CC[C@H](C)[C@H](NC(=O)[C@H](C)NC(=O)CNC(=O)[C@H](Cc1ccccc1)NC(=O)[C@H](CC(N)=O)NC(=O)[C@@H]1CCCN1C(=O)[C@H](CO)NC(=O)[C@H](CO)NC(=O)[C@H](Cc1c[nH]cn1)NC(=O)[C@H](CCCNC(=N)N)NC(=O)[C@H](CC(C)C)NC(=O)[C@H](Cc1ccccc1)NC(=O)[C@H](CC(N)=O)NC(=O)[C@H](C)NC(=O)[C@H](CC(C)C)NC(=O)[C@H](CCCNC(=N)N)NC(=O)[C@H](CCC(N)=O)NC(=O)[C@@H](NC(=O)[C@H](C)NC(=O)[C@@H]1CSSC[C@H](NC(=O)[C@@H](N)CCCCNC(=O)COCCOCCNC(=O)COCCOCCNC(=O)CC[C@H](NC(=O)CCCCCCCCCCCCCCCCCCC(=O)O)C(=O)O)C(=O)N[C@@H](CC(N)=O)C(=O)N[C@@H]([C@@H](C)O)C(=O)N[C@@H](C)C(=O)N[C@@H]([C@@H](C)O)C(=O)N1)[C@@H](C)O)C(=O)N1CCC[C@H]1C(=O)N[C@@H](CO)C(=O)N[C@@H](CO)C(=O)N[C@H](C(=O)N[C@@H](CC(N)=O)C(=O)N[C@H](C(=O)NCC(=O)N[C@@H](Cc1c[nH]cn1)C(=O)N[C@@H](CC(N)=O)C(=O)N[C@H](C(=O)N[C@@H](Cc1ccc(O)cc1)C(N)=O)[C@@H](C)O)C(C)C)[C@@H](C)O
notes: also called compound 97
B3: N^ε1-[(4S)-4-carboxy-4-(17-carboxyheptadecanoylamino)butanoyl]-[Arg17,Pro21,Pro27,His34]-h-amylin (peptide)
peptide: K([γGlu-C18 diacid])CNTATCATQRLANFLRHSSPNFGAIPSSTNVGHNTY-NH2
modifications: disulfide 2-7; N-terminus assumed
SMILES: CC[C@H](C)[C@H](NC(=O)[C@H](C)NC(=O)CNC(=O)[C@H](Cc1ccccc1)NC(=O)[C@H](CC(N)=O)NC(=O)[C@@H]1CCCN1C(=O)[C@H](CO)NC(=O)[C@H](CO)NC(=O)[C@H](Cc1c[nH]cn1)NC(=O)[C@H](CCCNC(=N)N)NC(=O)[C@H](CC(C)C)NC(=O)[C@H](Cc1ccccc1)NC(=O)[C@H](CC(N)=O)NC(=O)[C@H](C)NC(=O)[C@H](CC(C)C)NC(=O)[C@H](CCCNC(=N)N)NC(=O)[C@H](CCC(N)=O)NC(=O)[C@@H](NC(=O)[C@H](C)NC(=O)[C@@H]1CSSC[C@H](NC(=O)[C@@H](N)CCCCNC(=O)CC[C@H](NC(=O)CCCCCCCCCCCCCCCCC(=O)O)C(=O)O)C(=O)N[C@@H](CC(N)=O)C(=O)N[C@@H]([C@@H](C)O)C(=O)N[C@@H](C)C(=O)N[C@@H]([C@@H](C)O)C(=O)N1)[C@@H](C)O)C(=O)N1CCC[C@H]1C(=O)N[C@@H](CO)C(=O)N[C@@H](CO)C(=O)N[C@H](C(=O)N[C@@H](CC(N)=O)C(=O)N[C@H](C(=O)NCC(=O)N[C@@H](Cc1c[nH]cn1)C(=O)N[C@@H](CC(N)=O)C(=O)N[C@H](C(=O)N[C@@H](Cc1ccc(O)cc1)C(N)=O)[C@@H](C)O)C(C)C)[C@@H](C)O
B4: N^ε1-[(4S)-4-carboxy-4-(13-carboxytridecanoylamino)butanoyl]-[Arg17,Pro21,Pro27,His34]-h-amylin (peptide)
peptide: K([γGlu-C14 diacid])CNTATCATQRLANFLRHSSPNFGAIPSSTNVGHNTY-NH2
modifications: disulfide 2-7; N-terminus assumed
SMILES: CC[C@H](C)[C@H](NC(=O)[C@H](C)NC(=O)CNC(=O)[C@H](Cc1ccccc1)NC(=O)[C@H](CC(N)=O)NC(=O)[C@@H]1CCCN1C(=O)[C@H](CO)NC(=O)[C@H](CO)NC(=O)[C@H](Cc1c[nH]cn1)NC(=O)[C@H](CCCNC(=N)N)NC(=O)[C@H](CC(C)C)NC(=O)[C@H](Cc1ccccc1)NC(=O)[C@H](CC(N)=O)NC(=O)[C@H](C)NC(=O)[C@H](CC(C)C)NC(=O)[C@H](CCCNC(=N)N)NC(=O)[C@H](CCC(N)=O)NC(=O)[C@@H](NC(=O)[C@H](C)NC(=O)[C@@H]1CSSC[C@H](NC(=O)[C@@H](N)CCCCNC(=O)CC[C@H](NC(=O)CCCCCCCCCCCCC(=O)O)C(=O)O)C(=O)N[C@@H](CC(N)=O)C(=O)N[C@@H]([C@@H](C)O)C(=O)N[C@@H](C)C(=O)N[C@@H]([C@@H](C)O)C(=O)N1)[C@@H](C)O)C(=O)N1CCC[C@H]1C(=O)N[C@@H](CO)C(=O)N[C@@H](CO)C(=O)N[C@H](C(=O)N[C@@H](CC(N)=O)C(=O)N[C@H](C(=O)NCC(=O)N[C@@H](Cc1c[nH]cn1)C(=O)N[C@@H](CC(N)=O)C(=O)N[C@H](C(=O)N[C@@H](Cc1ccc(O)cc1)C(N)=O)[C@@H](C)O)C(C)C)[C@@H](C)O
B5: N^ε1-[(4S)-4-carboxy-4-(15-carboxypentadecanoylamino)butanoyl]-[Arg17,Pro21,Pro27,His34]-h-amylin (peptide)
peptide: K([γGlu-C16 diacid])CNTATCATQRLANFLRHSSPNFGAIPSSTNVGHNTY-NH2
modifications: disulfide 2-7; N-terminus assumed
SMILES: CC[C@H](C)[C@H](NC(=O)[C@H](C)NC(=O)CNC(=O)[C@H](Cc1ccccc1)NC(=O)[C@H](CC(N)=O)NC(=O)[C@@H]1CCCN1C(=O)[C@H](CO)NC(=O)[C@H](CO)NC(=O)[C@H](Cc1c[nH]cn1)NC(=O)[C@H](CCCNC(=N)N)NC(=O)[C@H](CC(C)C)NC(=O)[C@H](Cc1ccccc1)NC(=O)[C@H](CC(N)=O)NC(=O)[C@H](C)NC(=O)[C@H](CC(C)C)NC(=O)[C@H](CCCNC(=N)N)NC(=O)[C@H](CCC(N)=O)NC(=O)[C@@H](NC(=O)[C@H](C)NC(=O)[C@@H]1CSSC[C@H](NC(=O)[C@@H](N)CCCCNC(=O)CC[C@H](NC(=O)CCCCCCCCCCCCCCC(=O)O)C(=O)O)C(=O)N[C@@H](CC(N)=O)C(=O)N[C@@H]([C@@H](C)O)C(=O)N[C@@H](C)C(=O)N[C@@H]([C@@H](C)O)C(=O)N1)[C@@H](C)O)C(=O)N1CCC[C@H]1C(=O)N[C@@H](CO)C(=O)N[C@@H](CO)C(=O)N[C@H](C(=O)N[C@@H](CC(N)=O)C(=O)N[C@H](C(=O)NCC(=O)N[C@@H](Cc1c[nH]cn1)C(=O)N[C@@H](CC(N)=O)C(=O)N[C@H](C(=O)N[C@@H](Cc1ccc(O)cc1)C(N)=O)[C@@H](C)O)C(C)C)[C@@H](C)O

Each binder was assayed against T1, human calcitonin receptor (assay: cell-based or functional assay).

Q: For K([γGlu-γGlu-C20 diacid])CNTATCATQRLAEFLRHSSPNFGAIPSSTNVGPNTF-NH2 (disulfide 2-7 (inferred), Synthetic), which “hCTR funct. EC50 (pM)” value is on record?
A: Its value is 2140 pM.

Q: Which “hCTR funct. EC50 (pM)” value does the source give for K([γGlu-γGlu-C20 diacid])CNTATCATQRLAEFLRHSSPNFGAIPSSTNVGPRTY-NH2 (disulfide 2-7 (inferred), Synthetic; also called compound 110) here?
A: The value was 8160 pM.

Each binder was assayed against T2, human calcitonin receptor (assay: cell-based or functional assay).

Q: For B1, which “hCTR funct. EC50 (pM)” value is on record?
A: The value was 1480 pM.

Q: With B2 as the binder, how does the “hCTR funct. EC50 (pM)” value read?
A: The value was 11800 pM.

Q: How did the “hCTR funct. EC50 (pM)” value turn out when B3 was run?
A: Its value is 5850 pM.

Q: With B4 as the binder, how does the “hCTR funct. EC50 (pM)” value read?
A: Its value is 1090 pM.

Q: With B5 as the binder, how does the “hCTR funct. EC50 (pM)” value read?
A: The value was 2210 pM.
